The record followed here is paper PMC12632274, “The PA2803-encoded PcrP exhibits a novel non-catalytic function and contributes to polymyxin B resistance in P. aeruginosa” (Journal of Bacteriology, 2025).

This data set concerns the molecule itself. Description: cross-linking; 50 µM purified PcrP with 0.02, 0.05, 0.1 and 0.2% glutaraldehyde, 2 min, 20 mM HEPES pH 7.8, 50 mM NaCl, 1% glycerol; stopped with Tris-HCl; 12% SDS-PAGE, Coomassie.

B1: 6xHis-PcrP (PA2803), recombinant, purified from E. coli (natural protein)
chain: MPSSDQLPRFTALLFGLSGGLVDFGARTLSLALLRSHPHSPAEHLRDASLLPFAEAQSFLLRRKPNKSERQRLEQALDEAAGEQAEAIAGAVALLESLDEQRIPYAWQDELPESVCQRLAAPLGRANALIPLAGARPWPAPDGCWQALARLGIERLDGCVLVSAQPRQLQAGLNAGLWTIGLAASGPSCGLSPADWDALGHTERDRLRADATLELYRLGVHSVIDHLGELQPCLHDLAVRRLKGEKP
notes: PcrP (PA2803), Pseudomonas aeruginosa PAO1; cloned NdeI/EcoRI into pSKB3; No removal of the His tag is described; also called 6XHis-PA2803; pAAK001 construct; source: E. coli BL21(DE3), purified (Ni-NTA)
Consider B1, for which the stoichiometry N (in general, the number of molecules, sites or subunits per partner or assembly) was 2.
